According to a protein production outcome set (Wang et al. 2014):

Assay: label from the status in PepcDB records
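Note: failed if final PepcDB status was selected cloned or expressed and not failed if soluble or beyond.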

In the case of “MDDVGRYQCLAVNEMGTVKKVVTVVLQSAPVFQVEPRDVTVRSGVDVELRCRATGEPVPTIEWLRAGRPLQAGRKLRALPDGSLWLEHVEAGDAGVYECVAHNRLGSVTAKALLAVRGEPRGSRGSMTGVINGQEFGMATLNISVLQQGSSEAPTIWSSISHVPASVGPLMRVLVVTIAPIYWALARESGEALNGYSLTGGSFQQESQMEFSTGELLTMTQVARGLDPDGLLLVDMKINGMIPESLADGDLRVQDFQEHYVQTGPGQLFAGSTQRFLHDSLPASLRCNHSIQYDETRGLQPQLVQHLRASSISSAFDPEAEALNFQLTTALQTEENEVGCPEGFEPDVQGAFCVDKDECSGGPSPCSHTCRNAPGHFSCSCPTGFSLAWDHRNCRDVDECAGDTHLCQEEQRCVNLLGSYNCLASCRPGFRVTADGSNCEDVDECLEQLDECHYNQLCENTPGGHHCGCPRGYRQQGHSLPCLDINECLQLPTPCVYQCQNLQGSYRCLCPPGQTLLRDGRTCIPLERNRQNITIVSHRSPFGPWLRSRVPRPSSSYHTWVSLRPGSGALNSVGRAWCPPGFIRQDGVCADLDECRVRSLCQHACQNTEGSYYCLCPSGYRLLPSGKNCQDINECEEDGIECGPGQMCFNTRGSFQCVDTPCPTTYRQGSSPGTCFRRCSQDCSASGPSTLQYRLLPLPLGVRAHHDVARLAAFSEAGIPANRTELTVLEPDPRSPFALRQLRAGQGAVYTRRALTRAGLYRLTVRAAAPRHQSVYILLIAVSPYPY”, the protein production is reported as “failed”.
For “MTPIPLINIPLCNLAGDGYILSEKSQSQNMLRGIVMSETVRVGLLGYGYASKTFHAPLIAGTAGMELVAVSSSNAEKVHADWANLRVEKDPQALFSDPDIDLIVIPTPNDTHFPLAKQALEAGKHVVVDKPFTVTLSQAYDLGAIAERAGKVLSVFHNRRWDSDFLTLKQLLSAGTLGNVVYMESHFDRFRPEVRQRWREDGSEGSGIWYDLGPHLLDQALELFGLPVAIQVDMAQLRPGSKATDYFHATLIYPQRRVILHASMLVAAASARYTVHGTRGSFVKYGLDPQEDRLKAGERPPLADWGQDKHDGVLTLSRDGITAEQTIATIPGNYPAYYAAVRDALLGKGENPVGVNQAIQVMELIELGLLSHEQKKAVALKNSLEHHHHHH”, the protein production was “failed”.
For “KIADWLELHPAEKRKPWCVGIPRLAELAWQRVVAQRDTFGEAQLAHRIRDYLPEQGQLFVGNSLVVRLIDALSQLPAGYPVYSNRGASGIDGLLSTAAGVQRASAKSTLAIVGDLSALYDLNALALLRQVSAPFVLIVVNNNGGQIFSLLPTPQSKRERFYLMPQNVHFDHAAAMFNLRYHRPENWEELESALAGAWRTPATTVIELVVNDTDGAQTLQQLLAQVSHL”, the protein production was “failed”.
With “MLRNIIRFKGFGKGTSGGFLKPVSFRVQLTRCYRYDNGPSYRRFNNGEYSQKSSFKSILLDKSSRKYLALLFGGCSLFYYTHLDKAPVSDRSRFIWVSRPLELTIGNYTYKSIWRQTQQEILPPQHPLSIKIENIFMKIVEAAYKDPSVDNSLLDGIKWEIHVVNDPTASPNAFVLPGGKVFIFSSILPICANDDGIATVLAHEFAHQLARHTAENLSKAPIYSLLGLVLYTVTGAHAINNILLDGFLRMPASRQMETEADYIGLMIMSRACFQPQESIKVWERMANFEKQMNRGGVVNMEFLSTHPASTRRIENMSKWLPKANEIYEQSDCSSMGNYYKSFFSM” the protein production was “failed”.
With “MMDIVEIIIGFIALLMTARIFLERSRARKLLYLCCLSFCISALIALYVDSPMGGIVAITYFICSTISSNAIAYTIEQTKHIE” the protein production was “failed”.
In the case of “MPTLKSYFLKDTSLRTEILAGATTFLTMVYIVFVNPKVLHDAGMDQGAVFTATCLITAFACALTGFIANTPIGVAPSVALNIYFSYSVVQGMGVDWQHALAMVFISGLLFLFLTLTKLRRLLVEAIPHNLQIAIVIGISLLIALIALENNQIIIGDQHNLMRLGSIIRPETGLFFLGFILILTLDYHKIPGAIIIGILSISVLSLILGLTSWQGLIAMPPSLEPTFLQLDFSGLSSIVALKTIFTFFLITVFDATGSLIGLLSPTIFKHEKNYYKRLTRSLTADAAASSLAGLMGSASTSPYIESATGIEAGGRTGLTALVIATGFILMLFLFPLAKMIPSFAVGPALLYVACCMIKHITNMKLQDITETAPCMVIIMMVPFTASIADGIGLGIILYTLLKLFTRQKPNPLIIVLSLVFTVFFLIN”, the protein production is reported as “failed”.
With “MMWIPYNQGFHAGPKCLTVVFIYLLNMKVLRHIYRFLMELYGPQGWWPLLDRDTMTLRYHPGDYTPPSDDGDVFEVITGSILTQNTSWDSAASALRNLAAMDALKPHRILSLDDAELEAAIRCAGFYRQKVSYLREMAGFFISLEGSTPSRKELLKVRGVGPETADSVLLYAYRKPEFVVDAYTRRILTHLGLIAGDESYHRIKELFERSLEPDFRVFQEYHALIVRHGKSYYRGRVHGDGDPLEHHHHHH” the protein production was “failed”.
For “MAKLHIPVMVDEVVHCLSPQKGQIFLDMTFGSGGHTKAILQKESDIVLYALDRDPTAYALAEHLSELYPKQIRAMLGQFSQAEALLMKAGVQPGTFDGVLMDLGCSSMQLDTPERGFSLRKDGSLDMRMDGGRSTGTCIYPKNIRGGEACQENRFSNCSGTQHLPHHQNPAACQHRCRSISSLCYLYTERLTTAIYPYCHQDFPGSSHICEQ”, the protein production was “failed”.
In the case of “MKNFSRTGKILFSYGAIQMFWGLVMLNVNVFEHTSETIKYVILITGIVFCIISNFFKEHKSHTIT”, the protein production is reported as “failed”.
With “MFVHLSVELMQHLSAAALAFTVVTYVVLDGTDLGVGMLFAANRSDADRHLMAYSILPVWDGNETWLVLGGGSLLAMFPSAYAIFLNATYVPLVVMLLALICRGVALEYRDQLGTDRRRRVLDVVFMVASLLATFCQGVVAGTYLAGVAHRAGQYAGNGREWLQPFPLFCGVALVVGYLLLGACWLVWRSEGQLQQRARHQARVLGIVLGALLTLGVVWLARLTPIYAQRLGDAHISVPLGTSVLGLMVAMYLLMRSRHAFLPLFAVLGVVVATYAGVLAIVYPMVLPPDITLAQAASPPASQGVMLLAFAVLVPCTLAYSSYGFYVFRGKVKPRGHAAE” the protein production was “failed”.
For “MSKQSVKKIISFSLTIIIAIVMLGLLKNLFSQSDDKALSEAIRNGAFLVDVRTPGEFASGSVAGAVNIPLDRIASRLNELKNKKTIIVFCRSGNRSSQAKSILERNGFSNVLDGGTWGHVASLKGDQ”, the protein production was “failed”.
With “MLRLYKTIGRFNLINFQEDYPMKILVVGTGAREHAICSALADEATIYSVMGNRNPGISRLAGNSLLLLKLTPKVVRFASEKGVDMAFIGPEAHLEAGLVDALEEAGIPSVGPTRDAARIETDKSFMRKLFEDYRIPGSITYRVFSDPEELREFMEDFDSEAVVKPVGLTGGKGVKIVGEHLRDNMEALKYATEVIEKRIGGHPSVVIEERVVGEEFTVQAFSDGEHIVPMPAVQDHPHAYEGDQGPITGGMGSYSDSDGLLPFLTQKDYEDAVEIMQRTVDAIRKETGPYRGILYGQFMLSADGPKLIEYNARFGDPEAMNVLPLLESSMLEICEGIVDGNLKSASFMNLATVCKYLVPEGYPESGVAGAEIKVDEKKIEDMGVITYYAAVNQEDDHIYTSSSRALALVAPADDIYSAEELCEEATAHVKGRLYHRRDIGTRELVEKRIKHMEDLRS” the protein production was “failed”.
With “MASEDKFESVLSTRYCKNSPLVSILSETNKATLWRQLWIWLAEAEKELGLKQVTQDAIDEMKSNRDVFDWPFIRSEERKLKHDVMAHNHAFGKLCPTAAGIIHLGATSCFVQDNADLIAYRDSIDHILKRFATVIDRLAAFSLKNKEVVTVGRTHYQTASLVTVGKRGVLWAQELLMAFQSLSEFRDKMRFRGIKGATGTQDSFLTLFAGDESKVEALDELVTKKANFSNRFLITGQTYSRQQDSQLVFSLSLLGAAAKKVCTDIRVLQAFGELLEPFEKDQIGSSAMPYKKNPMKSERCCALSRKLINAPQEALTILADQGLERTLDDSAGRRMLIPDVLLTAEALLTTLQNIFEGLSVQTDNVKKIVEDEIAFLGLEKAMMMLTEEGVDRQQAHAVIRKTALEAKQLQATQKVDIRQTMADPFFDSVRDRVVGLVNNPINFTGRCVSQTESFIAKELKPTIDKYLDKSAGNVQLDV” the protein production was “not failed”.
With “MQPVEASDYWELARLSQPAVSPTGDRVAYVRTTAERDGDTGQETASVHVAPVGGGGSRRFTAADGTDAEPAWSPTGDRLAFVSTRGDAGGGRPQLWVVPVDGGEATRITDVIGGVSNIAWGPDGDRVAFLQAVRPAERAEELDREHDGEYERDTPDPRVIDRQMYRGHTSYRDGARRHVYVADLAAGRVDRVTAGVAECGGPAWGDDGTLYYPIRRGLDADDRLEWAIEAATPADSADSTVVTTVEGMGPTLAVHGSRVAYTTTPADDPTLTQTAVEVFDRDTGATDRLTDGVDRTVAERTAGHAPEWGPDGEHLYVCTPDEGGYVLRRVAADTGDDRVVLAGDRHVHAFSVSADAVAVVQSEWDHPGEVVAATPMGGEEVTLTRANRDYLDERAVSKPESVWIDGPAGDIQGWVLTPPEFDPEETYPLVVNVHGGPHLMWSAAGTMWHEFQTLAARGYVVFWCNPRGSTGYGQEWLRAVERDWGAVTLADVMAGVAAVTDRDYVDADNAFITGGSFGGFMTGWAVGHTDAFAGAVAQRGVYDLTGFYGTTDAYALVEGEFDTDPVRDNAFLWAQSPAAHTDAVDTPTLLVHSEADYRTPANTAELFYRLLKKHGVDTRLVRYPGEGHDLSRSGDPGHVVDRIERIAAWFDGYSDHHEAAPVLETDRPGAAADE” the protein production was “failed”.
For “MFNAYREYWNNITTMNASATRAQYWWPQLINYLVLGIYSAITGVYRYIEVTPNDGTIIKEWNTVTIIFFLLTALIWLANFTVRARRLHDRDHSNWWILFYLLPFIGTLVIFITLILPSKSHTRWPVNQSEI”, the protein production was “failed”.
In the case of “MGSEDHGAQNPSCKIMTFRPTMEEFKDFNKYVAYIESQGAHRAGLAKIIPPKEWKPRQTYDDIDDVVIPAPIQQVVTGQSGLFTQYNIQKKAMTVGEYRRLANSEKYCTPRHQDFDDLERKYWKNLTFVSPIYGADISGSLYDDDVAQWNIGSLRTILDMVERECGTIIEGVNTPYLYFGMWKTTFAWHTEDMDLYSINYLHFGEPKSWYAIPPEHGKRLERLAIGFFPGSSQGCDAFLRHKMTLISPIILKKYGIPFSRITQEAGEFMITFPYGYHAGFNHGFNCAESTNFATLRWIDYGKVATQCTCRKDMVKISMDVFVRILQPERYELWKQGKDLTVLDHTRPTALTSPELSSWSASRASLKAKLLRRSHRKRSQPKKPKPEDPKFPGEGTAGAALLEEAGGSVKEEAGPEVDPEEEEEEPQPLPHGREAEGAEEDGRGKLRPTKAKSERKKKSFGLLPPQLPPPPAHFPSEEALWLPSPLEPPVLGPGPAAMEESPLPAPLNVVPPEVPSEELEAKPRPIIPMLYVVPRPGKAAFNQEHVSCQQAFEHFAQKGPTWKEPVSPMELTGPEDGAASSGAGRMETKARAGEGQAPSTFSKLKMEIKKSRRHPLGRPPTRSPLSVVKQEASSDEEASPFSGEEDVSDPDALRPLLSLQWKNRAASFQAERKFNAAAARTEPYCAICTLFYPYCQALQTEKEAPIASLGEGCPATLPSKSRQKTRPLIPEMCFTSGGENTEPLPANSYIGDDGTSPLIACGKCCLQVHASCYGIRPELVNEGWTCSRCAAHAWTAECCLCNLRGGALQMTTDRRWIHVICAIAVPEARFLNVIERHPVDISAIPEQRWKLKCVYCRKRMKKVSGACIQCSYEHCSTSFHVTCAHAAGVLMEPDDWPYVVSITCLKHKSGGHAVQLLRAVSLGQVVITKNRNGLYYRCRVIGAASQTCYEVNFDDGSYSDNLYPESITSRDCVQLGPPSEGELVELRWTDGNLYKAKFISSVTSHIYQVEFEDGSQLTVKRGDIFTLEEELPKRVRSRLSLSTGAPQEPAFSGEEAKAAKRPRVGTPLATEDSGRSQDYVAFVESLLQVQGRPGAPF”, the protein production is reported as “failed”.
For “MRILILGMGGTIASVKGERGYESALSVSKILKLAGISSEAKIEARDLMNVDSTLIQPSDWERLAKEIEKEVWEYDGIVITHGTDTMAYSASMLSFMLRNPPIPIVLTGSMLPITEKNSDAPFNLRTALEFVKLGIRGIYIAFNGKVMLGVRASKIRSMGFDAFESINYPNVAEIKDDKLRILHIPDFYGDEFFSDIKYEPKVLVIKLIPGLSGDIVREALRLGYKGIILEGYGVGGIPYRGTDLFEVVSSISKRIPVVLTTQAIYDGVDLQRYKVGRIALEAGVIPAGDMTKEATITKLMWILGHTKNIEEVKQLMGKNITGELTRVS”, the protein production was “not failed”.
